± gives the standard deviation of the averaged measurements.
Tested on: Saccharomyces cerevisiae
Assay: protein stability index of tFT-peptide fusion (C-terminal peptide) (PSI (0-1 scale)); higher = more stable (slower turnover)
Settings: temperature: 30 C
Description: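 MPS profiling in S. cerevisiae of the yeast C-terminome library: the last 12 aa of each annotated ORF are fused to the C-terminus of a sfGFP-mCherry timer, after a GGGS linker. Cells are FACS-sorted into 8 mCherry/sfGFP bins and deep-sequenced. PSI runs from 0 (unstable) to 1 (stable); wild type and das1Δ backgrounds, two technical replicates each.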

[1] = genetic background: das1 deletion

Sequence	protein stability index [1]	protein stability index (genetic background: wild type)
TLIAAGIIRTGR [STI1 C-terminal 12 aa]	0.727 ± 0.025	0.702 ± 0.016
EVAKSLTLQYDV [CNB1 C-terminal 12 aa]	0.699 ± 0.0073	0.68 ± 0.015
QRIHQTLEVPNL [FAR1 C-terminal 12 aa]	0.708 ± 0.01	0.692 ± 0.06
VQNWKPKPFGVL [LAS1 C-terminal 12 aa]	0.707 ± 0.015	0.737 ± 0.059
LALYKKAYGIEF [STP2 C-terminal 12 aa]	0.686 ± 0.031	0.6671 ± 0.0058
TIISKGYAKIRD [TAF4 C-terminal 12 aa]	0.68 ± 0.022	0.7 ± 0.049
KDEVTDDMQLEV [JLP2 C-terminal 12 aa]	0.6997 ± 0.002	0.68 ± 0.03
GGLHFHGESFAL [FRE8 C-terminal 12 aa]	0.699 ± 0.0096	0.712 ± 0.036
TASQLLEVQSKS [YGL039W C-terminal 12 aa]	0.68 ± 0.023	0.6694 ± 0.006
ADFLAKKGASRR [RNH1 C-terminal 12 aa]	0.6944 ± 0.002	0.698 ± 0.03
HRDIVSAGSLYL [MTR4 C-terminal 12 aa]	0.723 ± 0.034	0.7 ± 0.036
WKLRAKYGIRKD [MGR2 C-terminal 12 aa]	0.6905 ± 0.0028	0.684 ± 0.02
NVPSFGQDELDQ [MPS3 C-terminal 12 aa]	0.699 ± 0.016	0.688 ± 0.011
LIDVVPRRPLPQ [HAP5 C-terminal 12 aa]	0.734 ± 0.033	0.723 ± 0.03
YLERRVRTLKKD [MRPL32 C-terminal 12 aa]	0.713 ± 0.032	0.68 ± 0.013
VLGDCQHVTSLL [HST4 C-terminal 12 aa]	0.697 ± 0.015	0.7204 ± 0.0067
NNRYKNFSPKRL [YHR071C-A C-terminal 12 aa]	0.746 ± 0.011	0.683 ± 0.034
QKYLEELQKKKF [YET2 C-terminal 12 aa]	0.712 ± 0.023	0.7424 ± 0.0019
RLGNLENIKIPK [AIM4 C-terminal 12 aa]	0.737 ± 0.0074	0.696 ± 0.038
TIPAAKRTKPSA [LYS20 C-terminal 12 aa]	0.69801 ± 0.00025	0.703 ± 0.014
CSTERPKRARCD [YOR342C C-terminal 12 aa]	0.708 ± 0.0099	0.695 ± 0.029

Sequence	protein stability index [1]	protein stability index (genetic background: wild type)
VKKYSMKKKKKR [YDR320W-B C-terminal 12 aa]	0.671 ± 0.014	0.62 ± 0.0065
GALREVIKLQKQ [SLX9 C-terminal 12 aa]	0.704 ± 0.035	0.656 ± 0.0067
THLQQVAVSGQA [SEC23 C-terminal 12 aa]	0.572 ± 0.0092	0.618 ± 0.014
LPAEILSNEPLK [YML119W C-terminal 12 aa]	0.688 ± 0.01	0.692 ± 0.071
FCAAYQGKKNNK [SLN1 C-terminal 12 aa]	0.696 ± 0.022	0.659 ± 0.039
QSILACCQESNK [LCB1 C-terminal 12 aa]	0.702 ± 0.0093	0.645 ± 0.0071
DQAAKTFVIKKD [MDM38 C-terminal 12 aa]	0.703 ± 0.019	0.668 ± 0.028
LETDQDFLDGLL [YER034W C-terminal 12 aa]	0.708 ± 0.021	0.695 ± 0.0081
LLPGNTNLPWTS [ERG12 C-terminal 12 aa]	0.7093 ± 0.0045	0.742 ± 0.08
RFYFLSIFKYII [YBR191W-A C-terminal 12 aa]	0.633 ± 0.023	0.331 ± 0.02
CCCFLLELVCDN [YDR210W C-terminal 12 aa]	0.512 ± 0.013	0.523 ± 0.018
GKDRPSRFNSKK [TEX1 C-terminal 12 aa]	0.693 ± 0.011	0.667 ± 0.038
STDETPDNENKQ [SGT2 C-terminal 12 aa]	0.6998 ± 0.0031	0.67 ± 0.0077
LPKIIKKHQRLS [MRH4 C-terminal 12 aa]	0.724 ± 0.056	0.191 ± 0.0044
AYECAKHFLMKN [MRS4 C-terminal 12 aa]	0.7061 ± 0.0038	0.5284 ± 0.0001
RWFKKKKETGGS [BUD2 C-terminal 12 aa]	0.698 ± 0.0098	0.71919 ± 0.00068
YGANSQQTFEHT [YFR034W-A C-terminal 12 aa]	0.706 ± 0.011	0.728 ± 0.026
DVEIDEDEEYFY [SPO12 C-terminal 12 aa]	0.707 ± 0.0084	0.71 ± 0.01
KLKRAKRKGISE [IMP21 C-terminal 12 aa]	0.693 ± 0.013	0.692 ± 0.012
LLLGTVSATNAI [YPL062W C-terminal 12 aa]	0.6878 ± 0.004	0.706 ± 0.038
PPKSIFDTDDDD [RCN1 C-terminal 12 aa]	0.741 ± 0.025	0.714 ± 0.054

Sequence	protein stability index [1]	protein stability index (genetic background: wild type)
RLNNWLFGWNDL [NUP53 C-terminal 12 aa]	0.785 ± 0.012	0.707 ± 0.0094
AWAKKLKSMRRS [TAM41 C-terminal 12 aa]	0.709 ± 0.013	0.634 ± 0.021
YSFNKLTMTILY [YER137W-A C-terminal 12 aa]	0.6999 ± 0.0014	0.633 ± 0.026
IKAAIDRVDHSL [YKR018C C-terminal 12 aa]	0.6778 ± 0.0045	0.692 ± 0.041
NTQVDDETKKNN [YDC1 C-terminal 12 aa]	0.7078 ± 0.0056	0.7367 ± 0.0051
KKGLTRSVKFKN [SAS10 C-terminal 12 aa]	0.708 ± 0.044	0.667 ± 0.017
QSSHFGQVDEII [DUR3 C-terminal 12 aa]	0.684 ± 0.046	0.726 ± 0.04
NEQEINKIFEPE [HXT14 C-terminal 12 aa]	0.694 ± 0.01	0.743 ± 0.052
TLDRASNCWRGT [YBL006W-A C-terminal 12 aa]	0.709 ± 0.016	0.714 ± 0.062
TKKANILDPDYL [FLC1 C-terminal 12 aa]	0.685 ± 0.023	0.728 ± 0.032
EKSSVKRPCVKK [RKM4 C-terminal 12 aa]	0.674 ± 0.02	0.701 ± 0.0034
MTMILSRMSCSA [IRA2 C-terminal 12 aa]	0.622 ± 0.014	0.609 ± 0.015
RLWSRKEFRLGT [SNU71 C-terminal 12 aa]	0.7 ± 0.017	0.7 ± 0.029
GNNKKKRSVKRE [PBN1 C-terminal 12 aa]	0.688 ± 0.013	0.717 ± 0.036
DVEDVLIDTLCN [PEX22 C-terminal 12 aa]	0.723 ± 0.019	0.678 ± 0.03
IDNPEACEMCSG [RNR1 C-terminal 12 aa]	0.702 ± 0.022	0.694 ± 0.027
NVKVKALQRMTW [TIS11 C-terminal 12 aa]	0.6967 ± 0.0018	0.729 ± 0.039
KDAFLKELGLQN [PRD1 C-terminal 12 aa]	0.69 ± 0.013	0.678 ± 0.028
KPIETVFDEETV [YIP3 C-terminal 12 aa]	0.697 ± 0.018	0.72 ± 0.041
AGALAVAAAYLL [CWP1 C-terminal 12 aa]	0.693 ± 0.013	0.669 ± 0.0081
VPLGPKPDISRL [GTO1 C-terminal 12 aa]	0.7047 ± 0.0045	0.712 ± 0.041

Sequence	protein stability index [1]	protein stability index (genetic background: wild type)
LEEELTKIGLLP [GRX8 C-terminal 12 aa]	0.706 ± 0.018	0.698 ± 0.0098
FVAEAYLDEFVY [ARC19 C-terminal 12 aa]	0.71 ± 0.03	0.662 ± 0.02
EEIRRENFRVIE [KTR7 C-terminal 12 aa]	0.713 ± 0.012	0.677 ± 0.029
KKTAIDKLITLL [AIM18 C-terminal 12 aa]	0.681 ± 0.019	0.342 ± 0.017
FELVQPKGRRKH [TSR2 C-terminal 12 aa]	0.711 ± 0.016	0.686 ± 0.058
SIDKWFFISGSV [IPP1 C-terminal 12 aa]	0.726 ± 0.013	0.709 ± 0.0086
LSEEALSTCCCS [YJL118W C-terminal 12 aa]	0.7528 ± 0.0039	0.738 ± 0.047
IIFGHDNLWTVR [ALG7 C-terminal 12 aa]	0.742 ± 0.022	0.767 ± 0.041
SSAASSQVPAST [PTK1 C-terminal 12 aa]	0.694 ± 0.025	0.6743 ± 0.0022
QTTFLATAIVLC [YOR331C C-terminal 12 aa]	0.441 ± 0.018	0.4167 ± 0.0014
SQQNNNGNQNRY [RNQ1 C-terminal 12 aa]	0.7168 ± 0.002	0.6682 ± 0.0039
RELREHTKLLHS [YIL082W-A C-terminal 12 aa]	0.6879 ± 0.0029	0.597 ± 0.021
GKGKKKMVVLEW [ETR1 C-terminal 12 aa]	0.692 ± 0.026	0.712 ± 0.018
DNQPWQLARCGR [HRT1 C-terminal 12 aa]	0.698 ± 0.015	0.718 ± 0.014
YPFTISYISPPY [YPR169W-A C-terminal 12 aa]	0.71 ± 0.067	0.702 ± 0.025
KTLWSRFIEHFV [MIM2 C-terminal 12 aa]	0.746 ± 0.022	0.671 ± 0.023
QTILFAAFLPPA [GPI18 C-terminal 12 aa]	0.696 ± 0.025	0.682 ± 0.008
KEALLTRLEHMI [SWC7 C-terminal 12 aa]	0.682 ± 0.015	0.624 ± 0.011
GEYLRDEDTLFT [NIP7 C-terminal 12 aa]	0.727 ± 0.011	0.725 ± 0.013

Reference: the supplement of paper PMC10724198
